Experimental data: patent US20260055173A1 (published 2026)

T1: mouse VEGF-A (mouse, UniProt Q00731-2 27-190, limits assumed)
T1 sequence (looked up): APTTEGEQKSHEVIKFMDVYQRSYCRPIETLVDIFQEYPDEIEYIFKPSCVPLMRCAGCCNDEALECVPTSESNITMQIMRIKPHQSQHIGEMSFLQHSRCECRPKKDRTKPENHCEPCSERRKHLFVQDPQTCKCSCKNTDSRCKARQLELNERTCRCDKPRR


How the values were obtained:
human VEGF-A = human VEGF-A (human, UniProt P15692-4 27-191, limits assumed); test: ELISA, VHH-Fc expression supernatant on human VEGF-A
mouse VEGF-A = target: T1, mouse VEGF-A; test: ELISA, VHH-Fc expression supernatant on mouse VEGF-A
[1] = target: T2, human VEGF (ACRO, His tag) (human, UniProt P15692-4 27-191, limits assumed); test: ELISA, human VEGF (His tag) coated, anti-human IgG Fc-HRP
T2 construct: not shown: His tag
Method: (§1) The binding of the antibody to human PD-1 was detected by ELISA. 1 μg/mL human PD-1 (ACRO, His tag) was coated on an ELISA plate overnight and blocked. Subsequently, the plate was added with gradient dilutions of the bispecific antibody and the control antibody, incubated and washed. Then, the plate was added with HRP-labeled anti-human IgG Fc secondary antibody, incubated and washed. After TMB solution was added for color development, the OD450 absorbance value was read on a microplate reader (see Table 12). […] Subsequently, the plate was added with gradient dilutions of the sample to be tested and the control antibody, incubated and washed. Then, the plated was added with HRP-labeled anti-human IgG Fc secondary antibody, incubated and washed. After TMB solution was added for color development, the OD450 absorbance value was read on a microplate reader (see Table 13). […] (The control substances were all obtained by in-house expression and purification)

[2] = target: T3, human PD-1 (ACRO, His tag) (human, UniProt Q15116 25-167); test: dual (bridging) ELISA: human PD-1 (His tag) coated, antibody, then biotinylated human VEGF; 'A single targeting antibody failed to bind to two targets simultaneously'
T3 construct: not shown: His tag
Method: (§2) The order of the binding to VEGF and PD-1 was changed for dual ELISA detection. A 96-well ELISA plate was coated with 1 μg/mL human PD-1 (ACRO, His tag) overnight, washed and blocked for 1 hour. […] TMB solution was added for color development, and the OD450 nm absorbance value was read on a microplate reader.

[3] = target: T4, biotin-labeled human VEGF (ACRO, biotinylated protein) (human, UniProt P15692-4 27-191, limits assumed, biotinylated (site not stated)); test: competition ELISA: human VEGFR2 (Fc tag) coated, antibody mixed with biotinylated human VEGF, streptavidin-HRP
Method: (§3) ELISA plates were respectively coated with 2 μg/mL human VEGFR1 and 5 μg/mL human VEGFR2 (in-house constructed and expressed, Fc tag) overnight, washed and blocked. […] Then the plates were added with HRP-labeled streptavidin and incubated for 1 hour. After TMB solution was added for color development, the OD450 nm absorbance value was read on a microplate reader.

[4] = target: T3, human PD-1 (ACRO, His tag); test: dual (bridging) ELISA: human PD-1 (His tag) coated, antibody, then biotinylated human VEGF, streptavidin-HRP
Method: as §2

[5] = target: T5, human PD-1 (ACRO, Fc tag) (human, UniProt Q15116 25-167); test: competition ELISA: human PD-1 (Fc tag) coated, antibody mixed with human PD-L1 (His tag); text: 'except for #48, which only bound to VEGF'
T5 construct: not shown: Fc tag
Method: (§4) An ELISA plate was coated with 1 ug/mL of human PD-1 (ACRO, Fc tag) overnight, washed and blocked. […] Then the plate was added with HRP-labeled anti-His antibody, and incubated for 1 hour. After TMB solution was added for color development, the OD450 absorbance value was read on a microplate reader (see Table 16).

VEGF = test: cell-based or functional assay
[6] = target: monkey PD-1 (ACRO, His tag) (monkey, UniProt B0LAJ3 25-170); test: ELISA, monkey PD-1 (His tag) coated, anti-human IgG Fc-HRP
Method: The binding of candidate molecules and competitor to antigens of different species was detected by ELISA. […] The binding of antibodies to monkey PD-1 was detected by ELISA. An ELISA plate was coated with 1 μg/mL monkey PD-1 (ACRO, His tag) overnight and blocked. Subsequently, the plate was added with gradient dilutions of the sample to be tested and the control antibody, incubated and washed. Then, the plate was added with HRP-labeled anti-human IgG Fc secondary antibody, incubated and washed. After TMB solution was added for color development, the OD450 absorbance value was read on a microplate reader (see Table 15).

[7] = target: human VEGF (Sino Biological, no label) (human, UniProt P15692-4 27-191, limits assumed); test: dual (bridging) ELISA: human VEGF (no label) coated, antibody, then human PD-1 (His tag), anti-His-HRP
Method: Biological, no label) overnight, washed and blocked for 1 hour. Subsequently, the plate was added with gradient dilutions of the test antibody, incubated for 2 hours, then added with 1 μg/mL of human PD-1 (ACRO, His tag), incubated for 2 hours, washed, and incubated with HRP-labeled anti-His antibody for 1 hour. After TMB solution was added for color development, the OD450 nm absorbance value was read on a microplate reader.

[8] = target: T3, human PD-1 (ACRO, His tag); test: ELISA, human PD-1 (His tag) coated, anti-human IgG Fc-HRP
Method: as §1

[9] = target: T4, biotin-labeled human VEGF (ACRO, …); test: competition ELISA: human VEGFR1 (Fc tag) coated, antibody mixed with biotinylated human VEGF, streptavidin-HRP
Method: as §3

[10] = target: T5, human PD-1 (ACRO, Fc tag); test: competition ELISA: human PD-1 (Fc tag) coated, antibody mixed with human PD-L1 (His tag), anti-His-HRP
Method: as §4

T3 sequence (Q15116 25-167 limits assumed): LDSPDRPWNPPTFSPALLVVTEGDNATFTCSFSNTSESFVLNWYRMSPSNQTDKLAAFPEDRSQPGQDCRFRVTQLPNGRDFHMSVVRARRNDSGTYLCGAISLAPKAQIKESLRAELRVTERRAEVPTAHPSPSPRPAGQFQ
monkey PD-1 (ACRO, His tag), sequence (B0LAJ3 entry or part of it limits assumed, form in doubt): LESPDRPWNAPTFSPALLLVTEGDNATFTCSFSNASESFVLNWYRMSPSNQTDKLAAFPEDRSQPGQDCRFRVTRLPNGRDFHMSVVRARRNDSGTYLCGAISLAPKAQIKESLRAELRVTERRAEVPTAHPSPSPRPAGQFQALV
T5 sequence (Q15116 25-167 limits assumed): as the sequence (Q15116 25-167 limits assumed) above

EC50 (human VEGF-A) [ng/mL] | EC50 (mouse VEGF-A) [ng/mL] | EC50 [1] [pM] | TOP OD [1] [OD450] | binding result [2] | IC50 [3] [pM] | TOP OD [4] [OD450] | binding result [5] | maximum inhibition rate (HUVEC proliferation) (VEGF) [%] | EC50 [6] [pM] | TOP OD [6] [OD450] | EC50 [7] [pM] | EC50 [8] [pM] | TOP OD [8] [OD450] | IC50 [9] [pM] | EC50 [4] [pM] | IC50 [10] [pM] | Binder
9.33 | 6.46 |  |  |  |  |  |  |  |  |  |  |  |  |  |  |  | Strain #6 VHH (Fc fusion, also called strain 6 (#6); not shown: Fc of the VHH-Fc construct) QVQLQESGGGLVQPGGSLRLSCAASGFTFSTSTMSWYRQAPGKERELVAFITSAGATTNYADSVKDRFTMSRDNDKNTVYLQMNVLKPEDTAMYYCRALVTLWNVYWGQGTQVTVSS
 |  | 608 | 3.09 | no binding | 5840 | 0.061 | no binding |  |  |  |  |  |  |  |  |  | Strain #48 VHH (VHH, not shown: a dimerising Fc or GST, Humanized, stabilized variant of #6 (11 Kabat-numbered mutations)) VHH: EVQLLESGGGLVQPGGSLRLSCAASGFTFSTSTMSWYRQAPGKERELVSFITSAGATTYYADSVKGRFTMSRDNSKNTVYLQMNSLRAEDTAVYYCRALVTLWNVYWGQGTLVTVSS
 |  | 579 | 1.75 |  | 3250 | 3.65 |  | ~60 | 171 | 3.38 | 326 | 114 | 2.58 | 507 | 117 | 2530 | #16 bispecific antibody (bispecific antibody, human IgG1, kappa, Pembrolizumab-based anti-PD-1 IgG with #48 VHH at the C-terminus of the heavy chain; 2+2 valency; functionally silent IgG1 Fc (AEASS)) heavy: QVQLVQSGVEVKKPGASVKVSCKASGYTFTNYYMYWVRQAPGQGLEWMGGINPSNGGTNFNEKFKNRVTLTTDSSTTTAYMELKSLQFDDTAVYYCARRDYRFDMGFDYWGQGTTVTVSSASTKGPSVFPLAPSSKSTSGGTAALGCLVKDYFPEPVTVSWNSGALTSGVHTFPAVLQSSGLYSLSSVVTVPSSSLGTQTYICNVNHKPSNTKVDKKVEPKSCDKTHTCPPCPAPEAEGAPSVFLFPPKPKDTLMISRTPEVTCVVVDVSHEDPEVKFNWYVDGVEVHNAKTKPREEQYNSTYRVVSVLTVLHQDWLNGKEYKCKVSNKALPSSIEKTISKAKGQPREPQVYTLPPSREEMTKNQVSLTCLVKGFYPSDIAVEWESNGQPENNYKTTPPVLDSDGSFFLYSKLTVDKSRWQQGNVFSCSVMHEALHNHYTQKSLSLSPGEVQLLESGGGLVQPGGSLRLSCAASGFTFSTSTMSWYRQAPGKERELVSFITSAGATTYYADSVKGRFTMSRDNSKNTVYLQMNSLRAEDTAVYYCRALVTLWNVYWGQGTLVTVSS light: EIVLTQSPATLSLSPGERATLSCRASKGVSTSGYSYLHWYQQKPGQAPRLLIYLASYLESGVPARFSGSGSGTDFTLTISSLEPEDFAVYYCQHSRDLPLTFGGGTKVEIKRTVAAPSVFIFPPSDEQLKSGTASVVCLLNNFYPREAKVQWKVDNALQSGNSQESVTEQDSKDSTYSLSSTLTLSKADYEKHKVYACEVTHQGLSSPVTKSFNRGEC
 |  |  |  |  |  | 0.067 |  |  |  | 0.127 |  |  | 0.151 |  |  |  | Bevacizumab (antibody, V domains shown) VH: EVQLVESGGGLVQPGGSLRLSCAASGYTFTNYGMNWVRQAPGKGLEWVGWINTYTGEPTYAADFKRRFTFSLDTSKSTAYLQMNSLRAEDTAVYYCAKYPHYYGSSHWYFDVWGQGTLVTVSS VL: DIQMTQSPSSLSASVGDRVTITCSASQDISNYLNWYQQKPGKAPKVLIYFTSSLHSGVPSRFSGSGSGTDFTLTISSLQPEDFATYYCQQYSTVPWTFGQGTKVEIK
